Common to all, as to conditions: both partners purified
Experiment [1] addresses T1, Amyloid β 1-42 monomer (UniProt P05067 672-713).
T1 construct: printed molecular weight 4512 g/mol; numbers count on: the Aβ peptide; read out with antibody 4G8 in the dot blot; also called Aβ42; Aβ42 monomer; source: bought: Peptide Institute, Inc. (Japan), used without further purification
Put plainly: far-Western, overlay or dot blot; Aβ42 20 μM incubated with bFg or hFg (0.03, 0.3, 3 μM) for 1 h at 37 °C in 50 mM phosphate/200 mM NaCl pH 7.4, then dotted; loss of the spot intensity of antibody 4G8 (monomer) or A11 (oligomer) taken as binding by steric hindrance; apparent Kd from fit or simulation with eq S6.

For experiment [2], the target named is T2, Amyloid β 1-42 oligomer (UniProt P05067 672-713).
T2 construct: numbers count on: the Aβ peptide; granular particles of 5.0 ± 0.9 nm height in AFM; read out with antibody A11 in the dot blot; also called Aβ42 oligomer; Aβ oligomers; source: formed from bought Aβ42 (Peptide Institute, Inc.) at 20 μM during 1 h at 37 °C in 50 mM phosphate/200 mM NaCl (pH 7.4); copies: 12
The experiment is described as above.

The target of experiment [3] is T1, Amyloid β 1-42 monomer. Briefly: far-Western, overlay or dot blot + AUC; number of binding sites on bFg worked out from the concentrations of Aβ42 species (18 μM monomer, about 0.17 μM oligomer) and of bFg at which the interaction was seen.
In experiment [4] the target is T2, Amyloid β 1-42 oligomer. The description is as above.

B1: human fibrinogen (complex)
chain 1: ADSGEGDFLAEGGGVRGPRVVERHQSACKDSDWPFCSDEDWNYKCPSGCRMKGLIDEVNQDFTNRINKLKNSLFEYQKNNKDSHSLTTNIMEILRGDFSSANNRDNTYNRVSEDLRSRIEVLKRKVIEKVQHIQLLQKNVRAQLVDMKRLEVDIDIKIRSCRGSCSRALAREVDLKDYEDQQKQLEQVIAKDLLPSRDRQHLPLIKMKPVPDLVPGNFKSQLQKVPPEWKALTDMPQMRMELERPGGNEITRGGSTSYGTGSETESPRNPSSAGSWNSGSSGPGSTGNRNPGSSGTGGTATWKPGSSGPGSTGSWNSGSSGTGSTGNQNPGSPRPGSTGTWNPGSSERGSAGHWTSESSVSGSTGQWHSESGSFRPDSPGSGNARPNNPDWGTFEEVSGNVSPGTRREYHTEKLVTSKGDKELRTGKEKVTSGSTTTTRRSCSKTVTKTVIGPDGHKEVTKEVVTSEDGSDCPEAMDLGTLSGIGTLDGFRHRHPDEAAFFDTASTGKTFPGFFSPMLGEFVSETESRGSESGIFTNTKESSSHHPGIAEFPSRGKSSSYSKQFTSSTSYNRGDSTFESKSYKMADEAGSEADHEGTHSTKRGHAKSRPV
chain 2: QGVNDNEEGFFSARGHRPLDKKREEAPSLRPAPPPISGGGYRARPAKAAATQKKVERKAPDAGGCLHADPDLGVLCPTGCQLQEALLQQERPIRNSVDELNNNVEAVSQTSSSSFQYMYLLKDLWQKRQKQVKDNENVVNEYSSELEKHQLYIDETVNSNIPTNLRVLRSILENLRSKIQKLESDVSAQMEYCRTPCTVSCNIPVVSGKECEEIIRKGGETSEMYLIQPDSSVKPYRVYCDMNTENGGWTVIQNRQDGSVDFGRKWDPYKQGFGNVATNTDGKNYCGLPGEYWLGNDKISQLTRMGPTELLIEMEDWKGDKVKAHYGGFTVQNEANKYQISVNKYRGTAGNALMDGASQLMGENRTMTIHNGMFFSTYDRDNDGWLTSDPRKQCSKEDGGGWWYNRCHAANPNGRYYWGGQYTWDMAKHGTDDGVVWMNWKGSWYSMRKMSMKIRPFFPQQ
chain 3: YVATRDNCCILDERFGSYCPTTCGIADFLSTYQTKVDKDLQSLEDILHQVENKTSEVKQLIKAIQLTYNPDESSKPNMIDAATLKSRKMLEEIMKYEASILTHDSSIRYLQEIYNSNNQKIVNLKEKVAQLEAQCQEPCKDTVQIHDITGKDCQDIANKGAKQSGLYFIKPLKANQQFLVYCEIDGSGNGWTVFQKRLDGSVDFKKNWIQYKEGFGHLSPTGTTEFWLGNEKIHLISTQSAIPYALRVELEDWNGRTSTADYAMFKVGPEADKYRLTYAYFAGGDAGDAFDGFDFGDDPSDKFFTSHNGMQFSTWDNDNDKFEGNCAEQDGSGWWMNKCHAGHLNGVYYQGGTYSKASTPNGYDNGIIWATWKTRWYSMKKTTMKIIPFNRLTIGEGQQHHLGGAKQAGDV
modifications: Natural plasma hexamer (AαBβγ)2, about 340 kDa, disulfide-linked and N-glycosylated, fibrinopeptides A and B retained. Aα is the 610-residue plasma form (the paper gives αC as 221-610); mature 1-610 =
Regarding B1, the Kd with Amyloid β 1-42 monomer [1] is ≥ 100000 nM; in the experiment with Amyloid β 1-42 oligomer [2], 1400 ± 200 nM.

B2: bovine fibrinogen (complex)
chain 1: EDGSDPPSGDFLTEGGGVRGPRLVERQQSACKETGWPFCSDEDWNTKCPSGCRMKGLIDEVDQDFTSRINKLRDSLFNYQKNSKDSNTLTKNIVELMRGDFAKANNNDNTFKQISEDLRSRIEILRRKVIEQVQRIKVLQKNVRDQLVDMKRLEVDIDIKIRSCKGSCSRALEHKVDLEDYKNQQKQLEQVIAINLLPSRDIQYLPLIKMSTITGPVPREFKSQLQEAPLEWKALLEMQQTKMVLETFGGDGHARGDSVSQGTGLAPGSPRKPGTSSIGNVNPGSYGPGSSGTWNPGRPEPGSAGTWNPGRPEPGSAGTWNPGRPEPGSAGTWNPGRPEPGSAGTWNPGRPEPGSAGTWNTGSSGSSSFRPDSSGHGNIRPSSPDWGTFREEGSVSSGTKQEFHTGKLVTTKGDKELLIDNEKVTSGHTTTTRRSCSKVITKTVTNADGRTETTKEVVKSEDGSDCGDADFDWHHTFPSRGNLDDFFHRDKDDFFTRSSHEFDGRTGLAPEFAALGESGSSSSKTSTHSKQFVSSSTTVNRGGSAIESKHFKMEDEAESLEDLGFKGAHGTQKGHTKARPARGIHTSPLGEPSLTP
chain 2: QFPTDYDEGQDDRPKVGLGARGHRPYDKKKEEAPSLRPVPPPISGGGYRARPATATVGQKKVERKPPDADGCLHADPDLGVLCPTGCKLQDTLVRQERPIRKSIEDLRNTVDSVSRTSSSTFQYITLLKNMWKGRQNQVQDNENVVNEYSSHLEKHQLYIDETVKNNIPTKLRVLRSILENLRSKIQKLESDVSTQMEYCRTPCTVTCNIPVVSGKECEKIIRNEGETSEMYLIQPEDSSKPYRVYCDMKTEKGGWTVIQNRQDGSVDFGRKWDPYKQGFGNIATNAEGKKYCGVPGEYWLGNDRISQLTNMGPTKLLIEMEDWKGDKVTALYEGFTVQNEANKYQLSVSKYKGTAGNALIEGASQLVGENRTMTIHNSMFFSTYDRDNDGWKTTDPRKQCSKEDGGGWWYNRCHAANPNGRYYWGGAYTWDMAKHGTDDGVVWMNWQGSWYSMKKMSMKIRPYFPEQ
chain 3: YVATRDNCCILDERFGSYCPTTCGIADFLNNYQTSVDKDLRTLEGILYQVENKTSEARELVKAIQISYNPDQPSKPNNIESATKNSKSMMEEIMKYETLISTHESTIRFLQEVYNSNSQKIVNLRDKVVQLEANCQEPCQDTVKIHDVTGRDCQDVANKGAKESGLYFIRPLKAKQFLVYCEIDGSGNGWTVFQKRLDGSLDFKKNWIQYKEGFGHLSPTGTGNTEFWLGNEKIHLISTQSSIPYVLRIQLEDWNGRTSTADYASFKVTGENDKYRLTYAYFIGGDAGDAFDGYDFGDDSSDKFFTSHNGMQFSTWDSDNDKYDGNCAEQVGIGWWMNKCHAGHLNGVYYQGGTYSKTSTPNGYDNGIIWATWKSRWYSMKKTTMKIIPLNRLAIGEGQQHQLGGAKQVGVEHHVEIEYD
notes: fibrinogen Aα chain, bovine; fibrinogen Bβ chain, bovine; fibrinogen γ chain, bovine; About 340 kDa, six polypeptide chains (two Aα, two Bβ, two γ); also called bFg; source: bought: Wako Pure Chemical Industries (from plasma), purified via size-exclusion chromatography (monomer fractions); copies: 2 + 2 + 2
Broadly, the stoichiometry N is the number of molecules, sites or subunits per partner or assembly. On to B2, for which the “stoichiometry N” value with Amyloid β 1-42 monomer [3] is ≤ 6; with Amyloid β 1-42 oligomer [4] it was ≥ 2. For the same molecule, the Kd in the experiment with Amyloid β 1-42 monomer [1] is ~1000 nM; with Amyloid β 1-42 oligomer [2] it was 200 ± 50 nM.

The values above are taken from PMC12447488, “Targeting Both Monomer and Oligomer with Fibrinogen Efficiently Suppresses Amyloid Fibril Formation and Cell Toxicity of Amyloid β 1‑42” (ACS Chemical Neuroscience, 2025).
